Results reported in patent publication US20170320967A1 (published 2017).

Target: T1, recombinant human IL4 (human, UniProt P05112 25-153)
T1 construct: Bought protein; also called human IL4 (Millipore catalog # IL004)
T1 sequence (looked up): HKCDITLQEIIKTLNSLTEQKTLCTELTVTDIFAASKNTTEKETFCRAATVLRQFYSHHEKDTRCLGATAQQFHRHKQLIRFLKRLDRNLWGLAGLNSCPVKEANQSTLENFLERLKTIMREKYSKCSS
Assay: SPR (Biacore), captured antibody, IL4 as analyte

B1: Binding Protein 18, (anti-IL4 × anti-IL13) × anti-IL13 (bispecific antibody, human IgG1, kappa, lambda)
heavy 1: not shown
light 1: DIVLTQSPASLAVSLGQRATISCRASESVDSYGQSYMHWYQQKAGQPPKLLIYLASNLESGVPARFSGSGSRTDFTLTIDPVQAEDAATYYCQQNAEDSRTFGGGTKLEIKGQPKAAPSVTLFPPSSEELQANKATLVCLISDFYPGAVTVAWKADSSPVKAGVETTTPSKQSNNKYAASSYLSLTPEQWKSHRSYSCQVTHEGSTVEKTVAPTECS
heavy 2: not shown
light 2: not shown
notes: Bispecific trivalent (CODV-Fab) × Fab-IgG1 Fc; kappa on CODV-LC, lambda on Fab-arm-LC; CODV-HC knob-RF, Fab-arm-HC hole; also called IL13 × (IL4 × IL13)
With B1 as the binder, how does the Kd read?
The Kd was 1.02 pM.
